Experimental data as given in US5811267.

Columns and labels:
[1] = molecular target: P-glycoprotein (product of the human MDR1 gene) (human) (UniProt P08183); test: solid phase whole-cell ELISA, hybridoma supernatant on fixed BATV.2 cells (human MDR1 transfected 3T3) against parent BA3T3 cells
[2] = molecular target: P-glycoprotein (product of the human MDR1 gene) (human) (UniProt P08183); test: indirect immunofluorescence on drug-resistant cell lines against drug-sensitive parental KB-3-1 cells

fold reaction on BATV.2 cells over parent BA3T3 cells [1]: > 2 fold
fold reaction on resistant cell lines over KB-3-1 cells [2]: > 2 fold
Substance: monoclonal antibody produced by the hybridoma cell line 15D3 (ATCC No. HB11342)
